We go through 6 molecules from patent US20260098080A1, “A MODIFIED PROTEIN SCAFFOLD AND USE THEREOF” (EVOLVERITAS BIOTECHNOLÓGIAI KORLÁTOLT FELELOSSÉGU TÁRSASÁG, priority 2022, published 2026).

For one data set, the system named is extrinsic pathway. Description: Human blood coagulation: prothrombin time. The data set is classed as biochemical. The conditions noted are these: human plasma, duplicates 21/1 and 21/2. As to the method: (§1) The effect of the proteins of the present invention on the blood coagulation process was tested in three standard assays, the thrombin time, testing any direct effects on thrombin; prothrombin time, testing any effects on the extrinsic pathway; and the activated partial thromboplastin time, testing any effects on the intrinsic pathway.
(§2) Blood was collected from a healthy individual by vein puncture after informed consent. The blood was treated with sodium-citrate (3.8% wt/vol) and centrifuged. All three assays were performed on the automated instrument Sysmex CA-1500 (Sysmex) with Innovin reagent (Dale Behring, Marburg, Germany).
(§3) The proteins of the present invention were applied in a twofold serial dilution in 1.4% wt/vol sodium bicarbonate (vehicle) with the highest final concentration being 10 μM (3.4 μM for EVO24 (SEQ ID NO: 15)) and the lowest final concentration being 156 nM (53 nM for EVO24 (SEQ ID NO: 15)).
(§4) All measurements were done in duplicates and a vehicle control was also tested. The highest concentration value is about 5 orders of magnitudes higher than the KD values of the four proteins of the present invention on human MASP-2.

The test system of the next data set is intrinsic pathway. Description: Human blood coagulation: activated partial thromboplastin time. Format: biochemical. The conditions noted are these: human plasma, duplicates 21/1 and 21/2. The protocol:
as §1, §2, §3, §4

The test system of the next data set is thrombin. Description: Human blood coagulation: thrombin time. Format: biochemical. To be noted: human plasma, duplicates 21/1 and 21/2. The protocol:
as §1, §2, §3, §4

The target of data set [1] is T1, human MASP-2 (in normal human serum) (human, UniProt O00187 16-686). Description: cell-based or functional assay.
For data set [2], the target named is T1, human MASP-2 (in normal human serum). Put plainly: cell-based or functional assay. The source holds these as a separate data set.
The target of data set [3] is rat MASP-2 (in rat serum) (rat, UniProt Q9JJS8 20-685). Description: cell-based or functional assay.
The target in data set [4] is T2, human MASP-2cf CCP1-CCP2-SP (human, UniProt O00187 298-686, limits assumed).
T2 construct: domain: CCP1-CCP2-SP; also called human MASP-2 catalytic fragment
Description: enzyme inhibition, tight-binding fit.

In data set [5] the target is T3, rat MASP-2cf CCP1-CCP2-SP (rat, UniProt Q9JJS8 298-685).
T3 construct: range 298-685; Mw 42309 Da; also called rat MASP-2 catalytic fragment
Put plainly: enzyme inhibition, tight-binding fit.

Another data set has as its target T4, MASP-1 (UniProt P48740 298-699, limits assumed).
T4 sequence (looked up): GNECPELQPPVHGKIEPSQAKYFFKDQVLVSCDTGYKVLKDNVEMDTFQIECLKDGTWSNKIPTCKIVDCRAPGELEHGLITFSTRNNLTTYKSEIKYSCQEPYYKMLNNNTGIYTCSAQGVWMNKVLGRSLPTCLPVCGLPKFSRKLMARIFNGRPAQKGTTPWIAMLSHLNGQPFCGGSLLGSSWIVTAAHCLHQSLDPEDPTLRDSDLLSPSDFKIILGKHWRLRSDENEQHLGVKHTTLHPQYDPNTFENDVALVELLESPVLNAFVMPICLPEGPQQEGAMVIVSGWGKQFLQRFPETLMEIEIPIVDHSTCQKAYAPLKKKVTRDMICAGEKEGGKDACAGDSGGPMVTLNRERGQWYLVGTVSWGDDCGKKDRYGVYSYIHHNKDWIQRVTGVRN
Description: cell-based or functional assay.

Another data set concerns the target fIXa (human, UniProt P00740 47-461). Put plainly: cell-based or functional assay.
For the next data set, the target named is fXIa (human, UniProt P03951 19-625). Put plainly: cell-based or functional assay.
A further data set addresses T5, fXIIa (human, UniProt P00748 20-615, limits assumed).
T5 sequence (looked up): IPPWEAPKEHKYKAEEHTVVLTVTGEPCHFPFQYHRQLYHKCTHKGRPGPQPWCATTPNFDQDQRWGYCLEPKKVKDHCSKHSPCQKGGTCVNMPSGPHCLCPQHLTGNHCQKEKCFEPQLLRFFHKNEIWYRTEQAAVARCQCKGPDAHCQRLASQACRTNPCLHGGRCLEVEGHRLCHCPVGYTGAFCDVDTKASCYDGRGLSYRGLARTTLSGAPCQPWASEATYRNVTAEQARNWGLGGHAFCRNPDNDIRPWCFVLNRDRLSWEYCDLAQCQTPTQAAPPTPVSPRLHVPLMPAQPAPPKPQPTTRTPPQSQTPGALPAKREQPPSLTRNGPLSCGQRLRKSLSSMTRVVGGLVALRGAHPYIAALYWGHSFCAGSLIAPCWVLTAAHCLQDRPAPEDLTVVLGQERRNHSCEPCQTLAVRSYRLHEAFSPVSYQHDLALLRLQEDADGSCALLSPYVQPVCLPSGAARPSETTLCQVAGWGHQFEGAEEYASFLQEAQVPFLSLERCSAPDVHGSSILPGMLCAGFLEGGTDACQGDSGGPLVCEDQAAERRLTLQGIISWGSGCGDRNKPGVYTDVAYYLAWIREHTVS
Description: cell-based or functional assay.

Data set [6] has as its target T2, human MASP-2cf CCP1-CCP2-SP. Description: SPR, target immobilised. On the technique in general: Surface plasmon resonance follows binding to a sensor surface in real time, without labels.
The target of data set [7] is T3, rat MASP-2cf CCP1-CCP2-SP. Put plainly: SPR, target immobilised.

“And” between values parts separate entries of the source, which are not always exact repeats. Equal values may be shown once. Bridges are numbered along the chain shown (N, C = ends). Where no end group is shown, it is not given here.

Sequence of rat MASP-2 (in rat serum) (Q9JJS8 20-685 limits assumed): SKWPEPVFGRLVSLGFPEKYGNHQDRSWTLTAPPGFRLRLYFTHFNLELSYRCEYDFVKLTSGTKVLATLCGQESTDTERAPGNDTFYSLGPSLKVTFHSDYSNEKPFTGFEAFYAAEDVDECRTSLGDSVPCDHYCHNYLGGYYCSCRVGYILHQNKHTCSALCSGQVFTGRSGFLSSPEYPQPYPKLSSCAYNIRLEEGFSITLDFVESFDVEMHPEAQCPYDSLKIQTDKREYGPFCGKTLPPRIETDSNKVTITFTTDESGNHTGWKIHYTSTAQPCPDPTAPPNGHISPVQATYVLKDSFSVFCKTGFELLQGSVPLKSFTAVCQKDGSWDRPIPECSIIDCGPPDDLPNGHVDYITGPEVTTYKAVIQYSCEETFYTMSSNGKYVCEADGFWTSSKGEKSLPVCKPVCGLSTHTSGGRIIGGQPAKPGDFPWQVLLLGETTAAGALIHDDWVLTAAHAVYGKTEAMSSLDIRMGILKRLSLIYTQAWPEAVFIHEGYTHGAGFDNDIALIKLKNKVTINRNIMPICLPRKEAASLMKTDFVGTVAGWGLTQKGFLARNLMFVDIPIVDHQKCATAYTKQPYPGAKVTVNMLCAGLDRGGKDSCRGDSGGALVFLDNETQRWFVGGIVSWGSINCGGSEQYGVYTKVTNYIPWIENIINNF
T3 sequence (Q9JJS8 other isoform, or with tags, fused parts or gaps limits assumed, form in doubt): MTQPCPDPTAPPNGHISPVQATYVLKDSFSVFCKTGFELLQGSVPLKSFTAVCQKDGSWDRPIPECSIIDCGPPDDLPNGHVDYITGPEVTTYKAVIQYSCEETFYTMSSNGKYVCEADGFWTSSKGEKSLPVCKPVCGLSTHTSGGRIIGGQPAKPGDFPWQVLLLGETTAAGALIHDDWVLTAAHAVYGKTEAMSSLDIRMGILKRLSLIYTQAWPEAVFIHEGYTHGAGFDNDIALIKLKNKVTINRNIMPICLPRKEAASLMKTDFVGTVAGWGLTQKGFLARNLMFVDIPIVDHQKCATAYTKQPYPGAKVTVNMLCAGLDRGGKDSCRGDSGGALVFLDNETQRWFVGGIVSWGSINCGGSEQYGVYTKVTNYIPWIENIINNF
T2 sequence (O00187 298-686 limits assumed): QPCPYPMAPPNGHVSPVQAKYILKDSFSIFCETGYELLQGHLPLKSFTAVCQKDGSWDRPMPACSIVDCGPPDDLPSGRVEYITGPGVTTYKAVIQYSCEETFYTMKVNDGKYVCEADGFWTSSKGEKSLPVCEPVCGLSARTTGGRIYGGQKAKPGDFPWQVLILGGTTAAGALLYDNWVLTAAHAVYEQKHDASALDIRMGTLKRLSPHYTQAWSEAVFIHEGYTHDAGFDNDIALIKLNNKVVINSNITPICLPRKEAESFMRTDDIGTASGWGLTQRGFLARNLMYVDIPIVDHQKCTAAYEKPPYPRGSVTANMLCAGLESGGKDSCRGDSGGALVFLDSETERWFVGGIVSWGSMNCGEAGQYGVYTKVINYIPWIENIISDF
T1 sequence (O00187 16-686 limits assumed): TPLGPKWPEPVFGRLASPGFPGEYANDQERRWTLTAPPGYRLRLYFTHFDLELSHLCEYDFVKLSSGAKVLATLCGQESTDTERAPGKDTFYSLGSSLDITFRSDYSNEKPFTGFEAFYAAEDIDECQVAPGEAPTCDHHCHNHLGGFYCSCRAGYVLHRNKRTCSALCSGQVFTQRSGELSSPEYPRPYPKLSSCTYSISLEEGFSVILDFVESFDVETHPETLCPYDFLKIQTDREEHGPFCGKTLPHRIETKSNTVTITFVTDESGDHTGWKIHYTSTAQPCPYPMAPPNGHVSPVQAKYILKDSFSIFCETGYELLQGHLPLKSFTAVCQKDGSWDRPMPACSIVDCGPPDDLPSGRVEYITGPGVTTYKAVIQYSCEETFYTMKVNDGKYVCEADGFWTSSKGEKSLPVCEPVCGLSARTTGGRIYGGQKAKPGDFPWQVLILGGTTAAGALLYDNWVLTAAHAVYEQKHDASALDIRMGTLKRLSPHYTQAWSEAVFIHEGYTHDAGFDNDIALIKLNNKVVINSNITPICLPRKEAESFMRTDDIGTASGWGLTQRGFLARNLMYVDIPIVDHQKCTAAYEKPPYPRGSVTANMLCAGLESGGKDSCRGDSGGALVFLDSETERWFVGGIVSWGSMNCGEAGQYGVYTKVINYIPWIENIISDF
Sequence of fXIa (P03951 19-625 limits assumed): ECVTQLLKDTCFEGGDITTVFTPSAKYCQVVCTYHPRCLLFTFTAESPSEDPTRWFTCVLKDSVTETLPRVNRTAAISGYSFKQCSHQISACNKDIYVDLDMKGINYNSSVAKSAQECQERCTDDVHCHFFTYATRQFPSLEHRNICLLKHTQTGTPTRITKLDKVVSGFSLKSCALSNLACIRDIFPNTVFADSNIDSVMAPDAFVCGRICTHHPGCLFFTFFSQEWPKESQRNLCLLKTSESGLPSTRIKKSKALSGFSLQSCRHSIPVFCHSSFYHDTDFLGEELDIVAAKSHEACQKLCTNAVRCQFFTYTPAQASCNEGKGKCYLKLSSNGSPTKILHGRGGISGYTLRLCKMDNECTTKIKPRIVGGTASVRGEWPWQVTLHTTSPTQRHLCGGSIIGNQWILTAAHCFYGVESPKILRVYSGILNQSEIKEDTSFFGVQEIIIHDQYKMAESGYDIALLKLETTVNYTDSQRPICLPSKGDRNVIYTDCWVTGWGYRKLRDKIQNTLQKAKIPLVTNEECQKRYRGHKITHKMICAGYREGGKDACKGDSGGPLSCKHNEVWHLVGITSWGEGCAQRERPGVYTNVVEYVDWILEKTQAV
Sequence of fIXa (P00740 47-461 limits assumed): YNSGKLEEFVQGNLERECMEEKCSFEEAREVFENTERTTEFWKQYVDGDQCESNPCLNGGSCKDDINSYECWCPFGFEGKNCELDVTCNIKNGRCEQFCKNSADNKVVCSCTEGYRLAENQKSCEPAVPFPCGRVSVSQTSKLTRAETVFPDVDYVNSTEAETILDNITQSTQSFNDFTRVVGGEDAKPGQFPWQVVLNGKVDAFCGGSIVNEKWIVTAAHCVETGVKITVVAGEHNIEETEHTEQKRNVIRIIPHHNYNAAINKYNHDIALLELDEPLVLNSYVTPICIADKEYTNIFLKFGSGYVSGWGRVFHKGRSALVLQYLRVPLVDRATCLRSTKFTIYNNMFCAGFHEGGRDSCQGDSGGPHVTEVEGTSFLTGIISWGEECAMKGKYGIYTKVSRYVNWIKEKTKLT

As for “KPDFCFLENDPGPCRALKRRYFYNNQTKQCERFGYGGCLGNMNNFVTLEECKNICEDG (disulfide 5-55, 14-38, 30-51) [EVO21]”, the PI in the data set on extrinsic pathway (0.15625 μM) was 10.2 and 10.0; in the data set on extrinsic pathway (0.3125 μM), 10.1 and 10.0; in the data set with extrinsic pathway (0.625 μM), 10.1 and 10.0; with extrinsic pathway (1.25 μM) it was 10.2 and 10.1; with extrinsic pathway (2.5 μM), 10.3 and 10.2; with extrinsic pathway (5 μM), 10.6 and 10.3. In the data set with extrinsic pathway (10 μM), the PI is 11.4 and 11.9. Also, the APTT in the data set on intrinsic pathway (0.15625 μM) was 32.9 and 32.3; with intrinsic pathway (0.3125 μM), 33.6 and 32.8; in the data set with intrinsic pathway (0.625 μM), 34.3 and 33.6; in the data set on intrinsic pathway (1.25 μM), 37.0 and 34.8; with intrinsic pathway (2.5 μM), 40.0 and 37.1; in the data set with intrinsic pathway (5 μM) it was 45.6 and 40.1. Further, the APTT with intrinsic pathway (10 μM) was 58.7 and 67.6. Besides, the TT in the data set on thrombin (0.15625 μM) was 17.1 and 17.0; in the data set on thrombin (0.3125 μM) it was 16.9 and 17.0; with thrombin (0.625 μM) it was 16.8 and 16.9; in the data set on thrombin (1.25 μM), 16.9 and 17.1; in the data set on thrombin (2.5 μM) it was 16.4 and 17.4; with thrombin (5 μM) it was 16.5 and 17.4. Further, in the data set on thrombin (10 μM), the TT was 16.8 and 16.4.

B1: EVO21c (designed binder)
chain: KPDFCFLEEDPGPCRALKRRYFYNNQTKQCERFGYGGCFGNMNNFVTLEECKNICEDG
modifications: not fully specified; cysteine pairing not given here
notes: Modified TFPI-D2 Kunitz domain; made as m1
The Ki is a dissociation constant, usually derived from enzyme kinetics or from competition with a known ligand. Turning to B1, in data set [1], the “Relative potency (relative human lectin pathway inhibitory efficiency compared to EVO2)” value was 22.3 fold relative to EVO2. In addition, in data set [2], the “IC50, lectin pathway C4 deposition, human serum” value (“IC50 … human serum” below) amounted to 6.2 nM and the “Relative potency, lectin pathway, human serum” value (“Relative potency … human serum” below) stood at 22.4 fold vs EVO2. Further, in data set [3], the “IC50, lectin pathway C4 deposition, rat serum” value (“IC50 … rat serum” below) came out at 12.4 nM and the “Relative potency, lectin pathway, rat serum” value (from here on “Relative potency … rat serum”) amounted to 8.5 fold vs EVO2. The molecule further had a Ki in [4] of 0.065 nM. For the same molecule, in data set [5], the Ki is 0.007 nM.

B2: EVO214 (designed binder)
chain: KPDFCFLENDPGPCRALKLRYFYNNQTKQCERFGYGGCLGNMNNFVTLEECKNICEDG
modifications: not fully specified; ends and bridges not checked
notes: as for B1
The term Kd denotes the free concentration of one partner at which half of the binding sites on the other are occupied at equilibrium, for simple one-to-one binding. Read a low Kd as higher affinity. As a reminder, the koff is the first-order rate constant of dissociation. Read a high koff as fast dissociation. What is called kon is the second-order rate constant of association. Higher therefore signals fast association. On to B2, for which, in [2], the “IC50 … human serum” value stood at 4.3 nM and the “Relative potency … human serum” value was found to be 32.4 fold vs EVO2. Moreover, in [3], the “IC50 … rat serum” value turned out to be 11.2 nM and the “Relative potency … rat serum” value amounted to 9.5 fold vs EVO2. The “IC50, enzyme activity on synthetic substrate” value (shortened to “IC50, enzyme activity”) with MASP-1 came out at 9600 nM. Further, the “IC50, enzyme activity” value in the data set with fIXa was found to be 24000 nM. Further, the “IC50, enzyme activity” value with fXIa stood at 200 nM. Besides, the “IC50, enzyme activity” value in the data set with fXIIa stood at 3700 nM. Also, in data set [6], the Kd came to 0.038 nM, the Relative affinity came out at 47.6 fold vs EVO2, the dissociation rate constant (koff) came out at 4.78e-05 s⁻¹ and the kon is 1.27e+06 M⁻¹ s⁻¹. For the same molecule, in [7], the affinity, expressed as Kd, was 0.117 nM; the Relative affinity amounted to 31 fold vs EVO2; the koff worked out at 7.19e-05 s⁻¹; the kon amounted to 614000 M⁻¹ s⁻¹.

B3: EVO221 (designed binder)
chain: KPDFCFLENDPGVCRAAAVRYFYNNQTKQCERFYYGGCLGNMNNFVTLEECKNICEDG
modifications: not fully specified; cysteine pairing not given here
notes: as for B1
On to B3, for which the “Relative potency (relative human lectin pathway inhibitory efficiency compared to EVO2)” value in data set [1] was 10.8 fold relative to EVO2. In data set [2], the “IC50 … human serum” value amounted to 12.7 nM and the “Relative potency … human serum” value was determined as 10.9 fold vs EVO2. Further, in data set [3], the “IC50 … rat serum” value came out at 11 nM and the “Relative potency … rat serum” value was determined as 9.7 fold vs EVO2. Besides, in data set [6], binding was characterised by a dissociation constant (Kd) of 0.127 nM, the Relative affinity turned out to be 14.1 fold vs EVO2, the koff came to 0.000131 s⁻¹ and the kon was determined as 1.03e+06 M⁻¹ s⁻¹. Besides, in [7], the Kd worked out at 0.17 nM, the Relative affinity was 21.4 fold vs EVO2, the koff amounted to 0.000113 s⁻¹ and the kon is 664000 M⁻¹ s⁻¹. Further, the Ki in [4] was 0.19 nM. Further, in [5], the affinity corresponds to a Ki of 0.1 nM.

B4: EVO224 (designed binder)
chain: KPDFCFLENDPGVCRALAVRYFYNNQTKQCERFYYGGCLGNMNNFVTLEECKNICEDG
modifications: not fully specified; cysteine pairing not given here
notes: as for B1
In the case of B4, in [2], the “IC50 … human serum” value worked out at 30.9 nM and the “Relative potency … human serum” value turned out to be 4.5 fold vs EVO2. Besides, in [3], the “IC50 … rat serum” value amounted to 29.6 nM and the “Relative potency … rat serum” value turned out to be 3.6 fold vs EVO2. Also, in data set [6], the Kd worked out at 0.561 nM, the Relative affinity is 3.2 fold vs EVO2, the koff was 0.000617 s⁻¹ and the kon turned out to be 1.1e+06 M⁻¹ s⁻¹. In data set [7], this molecule registered a Kd of 0.219 nM, a Relative affinity of 16.6 fold vs EVO2, a koff of 0.000184 s⁻¹ and a kon of 839000 M⁻¹ s⁻¹. Further, the Ki in data set [4] turned out to be 1.13 nM. Moreover, the Ki in [5] was 0.14 nM.

B5: EVO23 (designed binder)
chain: KPDFCFLENDPGPCRALKRRYFYNNQTKQCERFYYGGCFGNMNNFVTLEECKNICEDG
modifications: not fully specified; cysteine pairing not given here
notes: as for B1
In the case of B5, in data set [2], the “IC50 … human serum” value was 2.9 nM and the “Relative potency … human serum” value was found to be 47.1 fold vs EVO2. Moreover, in data set [3], the “IC50 … rat serum” value worked out at 8.1 nM and the “Relative potency … rat serum” value was 13.1 fold vs EVO2. The “IC50, enzyme activity” value with MASP-1 amounted to 6500 nM. For the same molecule, the “IC50, enzyme activity” value with fIXa came to 2600 nM. Also, the “IC50, enzyme activity” value with fXIa was determined as 500 nM. Moreover, the “IC50, enzyme activity” value with fXIIa amounted to 3300 nM. In [6], this molecule had a Kd of 0.094 nM, a Relative affinity of 19.1 fold vs EVO2, a koff of 0.000197 s⁻¹ and a kon of 2.1e+06 M⁻¹ s⁻¹. In data set [7], this molecule gave a Kd of 0.674 nM, a Relative affinity of 5.4 fold vs EVO2, a koff of 0.000662 s⁻¹ and a kon of 982000 M⁻¹ s⁻¹.
